Experimental data as given in patent US6033894A, “Kaposi's Syndrome Herpesvirus protease and assembly protein compositions and methods” (The Regents of the University of California, priority 1998, dated 2000).
“Also recorded” adds a separate entry of the source. Peptide text beside a SMILES is read from it. * marks the point of attachment. Boc = CC(C)(C)OC(=O)*; CH2Cl = ClC*

Columns and labels:
[1] = molecular target: fluorogenic peptide substrate DABCYL-Arg-Gly-Val-Val-Asn-Ala-Ser-Ser-Arg-Leu-Ala-EDANS (HCMV)
[2] = tested on: HCMV M-site peptide substrate DABCYL-[…]-EDANS; assay: Continuous fluorometric assay of cleavage of fluorogenic peptide substrate; type: biochemical; settings: for increase in fluorescence intensity (F/Fo) from peptide hydrolysis: 1.5 μM enzyme, 10 μM substrate, pH 5.5, 37° C., by five hours; for proteolytic activity relative to KSHV Pr: assayed according to the method of Example 5; for rate of hydrolysis of HCMV substrate relative to 1.5 μM wild-type KSHV Pr: 1 μM trypsin D102N or 1 nM trypsin vs 1.5 μM KSHV Pr, one-hour time course
Procedure: Such activities can be determined by comparing the activity of a KSHV PR, as defined herein, to that of the KSHV Pr having the sequence SEQ ID NO:7. For example, in experiments carried out in support of the present invention, recombinantly produced His6 -KSHV Pr and variant His6 -KSHV Pr(S114A) proteins were tested for ability to cleave a synthetic peptide substrate. The substrate, containing the HCMV M-site peptide sequence RGVVNASSRLA (SEQ ID NO:15) flanked by a fluorogenic donor-acceptor pair, allows for continuous monitoring of peptide hydrolysis due to fluorescence enhancement arising from donor-acceptor separation (Holskin, et al., 1995). This substrate contains an internal Arg residue, allowing for cleavage by trypsin, an extremely well-characterized serine protease.
Protease assays using the fluorogenic peptide substrate DABCYL-Arg-Gly-Val-Val-Asn-Ala-Ser-Ser-Arg-Leu-Ala-EDANS, where RGVVNASSRLA (SEQ ID NO:15) was obtained from BACHEM (King of Prussia, Pa.), were monitored optically by a Perkin-Elmer LS-5B luminescence spectrophotometer interfaced with a Macintosh SE-30 computer. DABCYL represents 4-(4'-Dimethylaminophenylazo)benzoic acid, and EDANS signifies (2'-aminoethylamino)-naphthalene-1-sulfonic acid. His6 -Pr and His6 -Pr(S114A) were diluted 10-fold from storage buffer into assay buffer (50 mM NaOAc (pH 5.5), 20% (v/v) glycerol, 0.1 mM EDTA, 0.1 mM DTT), equilibrated to 37° C. for 5 minutes in thermostatted quartz cuvettes, and manually mixed with a final substrate concentration of 10 μM. A pH 5.5 buffer was utilized due to slightly higher proteolytic activity than that observed in pH 7.5 Tris-based solutions. The final KSHV Pr concentrations were 1.5 μM. Time-evolved fluorescence enhancement was followed by exciting the samples at 355 nm and detecting emission at 495 nm. Trypsin and its D102N variant (Craik, et al., 1987) were diluted into the same assay buffer to final concentrations of 1 nM and 1 μM, respectively, and treated identically to the KSHV enzymes. The ratio of fluorescence at each time point (F) was then compared with the initial fluorescence output (FO) to generate plots of F/FO vs. time.

[3] = molecular target: fluorogenic peptide substrate DABCYL-Arg-Gly-Val-Val-Asn-Ala-Ser-Ser-Arg-Leu-Ala-EDANS (HCMV); remark: listed apart in the source
[4] = molecular target: T1, KSHV protease Pr(S204G), an autolytically stable variant (Human herpesvirus 8 strain GK18, UniProt Q2HRB6, S204G); assay: Fluorometric enzyme assay, inhibition of KSHV protease; type: biochemical, Kaposi's Sarcoma Herpesvirus (KSHV); settings: 0.5 μM enzyme Pr(S204G), 300 μM inhibitor, 15 min pre-incubation, 20 μM fluorogenic substrate
T1 construct: S204G, untagged, recombinant in E. coli; source DNA from pulmonary KS tumor clone
T1 sequence (Q2HRB6 1-230 A226V): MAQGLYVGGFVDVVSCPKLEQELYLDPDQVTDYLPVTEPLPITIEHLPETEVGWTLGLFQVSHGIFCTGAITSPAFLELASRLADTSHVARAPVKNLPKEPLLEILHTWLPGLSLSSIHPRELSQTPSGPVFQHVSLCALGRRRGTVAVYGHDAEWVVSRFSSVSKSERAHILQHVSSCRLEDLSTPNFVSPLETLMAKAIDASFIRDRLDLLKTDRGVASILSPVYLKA

[5] = tested on: KSHV-infected B-cell line, BCBL-1; assay: Northern blot of KSHV AP and Pr/AP transcripts in BCBL-1 cells; type: cell-based; parameters: production of 0.95 kb AP transcript / production of 0.95 kb and 2.3 kb transcripts: dose or concentration left out as unconfirmed
Description: The KSHV-infected B-cell line, BCBL-1, was employed for transcription of the KSHV Pr/AP and AP genes during lytic infection. This cell line harbors the viral genome in latent form, and treatment of these cells with TPA induces lytic replication (Renne, et al., 1996). Equivalent amounts of poly(A)-enriched RNA from uninduced or induced BCBL-1 cells in the presence or absence of phosphoroformic acid (PFA), an inhibitor of herpesviral DNA replication, were separated on a formaldehyde/agarose gel, transferred to a membrane, and hybridized to a probe derived from the 1.5 kb fragment containing the Pr/AP ORF of KSHV, as detailed in Example 6.
BCBL-1 cells (Renne, et al., 1996) were treated with phosphoroformic acid (PFA) at a concentration of 500 mM for at least 3 days prior to induction. Untreated and PFA treated cells were then split into identical flasks, at 3×10^5 cells/ml, and left unstimulated or induced with 12-O-tetradecanoyl phorbol-13-acetate (TPA) at a concentration of 20 ng/ml. After 48 hours, total RNA was harvested using RNAzol B as recommended by the manufacturer (Tel-Test, Friendwood, Tex.). To enrich the polyadenylated RNA fraction, 300 μg RNA samples, uninduced and induced with TPA, and with and without PFA treatment, were affinity purified using the Oligotex mRNA purification system (Qiagen, Chatsworth, Calif.). RNA was separated on a 1% agarose, 17% formaldehyde gel, transferred to Hybond-N nylon membrane in 10× SSC for 5 hours, and UV-crosslinked. The 1.5 kb insert from pBS1.5 was gel purified and labelled using the rediPrime Random Prime kit (Amersham Corporation, Arlington Heights, Ill.). Hybridization was performed as according to standard methods (Renne, et al., 1996), and the blot was exposed to Kodak XAR5 film for 8 hours.

KSHV His6-Pr (enzyme)
fluorescence enhancement (F/Fo) from hydrolysis of the fluorogenic peptide (fold increase in fluorescence intensity) [1]: 3

KSHV Pr: recombinant KSHV protease (SEQ ID NO:7) with amino-terminal His6 tag, expressed in E. coli
increase in fluorescence intensity (F/Fo) from peptide hydrolysis [2]: nearly three-fold increase

trypsin D102N (from UniProt P00763) (enzyme)
fluorescence enhancement (F/Fo) from hydrolysis of the fluorogenic peptide (fold faster than KSHV Pr) [3]: 2

CC(C)C[C@H](NC(=O)[C@H](Cc1ccc(O)cc1)NC(=O)OC(C)(C)C)C(=O)N[C@@H](CCCCN)C(=O)N[C@@H](C)C(=O)CCl [Boc-YLKA-COCH2 Cl] (Boc-YLKA-CH2Cl)
inhibition of protease activity [4]: Complete inhibition

O=C(O)P(=O)(O)O [PFA, phosphoroformic acid]
production of 0.95 kb and 2.3 kb transcripts ([5]; TPA-induced BCBL-1 cells): strongly inhibited
production of 0.95 kb AP transcript ([5]; uninduced BCBL-1 cells): strongly inhibited

CCCCCCCCCCCCCC(=O)O[C@@H]1[C@@H](C)[C@@]2(O)[C@@H](C=C(CO)C[C@]3(O)C(=O)C(C)=C[C@@H]23)[C@@H]2C(C)(C)[C@]12OC(C)=O [TPA, 12-O-tetradecanoyl phorbol-13-acetate]
production of 0.95 kb AP transcript upon lytic induction ([5]; BCBL-1 cells, TPA 20 ng/ml, 48 hours): strongly upregulated

B1: Pr(S204G): KSHV protease variant engineered to stabilize the enzyme against autoproteolysis, expressed without His6 tag (protein)
chain: MAQGLYVGGFVDVVSCPKLEQELYLDPDQVTDYLPVTEPLPITIEHLPETEVGWTLGLFQVSHGIFCTGAITSPAFLELASRLADTSHVARAPVKNLPKEPLLEILHTWLPGLSLSSIHPRELSQTPSGPVFQHVSLCALGRRRGTVAVYGHDAEWVVSRFSSVSKSERAHILQHVSSCRLEDLSTPNFVSPLETLMAKAIDAGFIRDRLDLLKTDRGVASILSPVYLKA
proteolytic activity relative to KSHV Pr [2]: essentially the same activity as Pr; also recorded: substantially the same activity as Pr

B2: trypsin D102N: trypsin in which the active site Asp residue has been replaced with Asn (protein)
chain: IVGGYTCQENSVPYQVSLNSGYHFCGGSLINDQWVVSAAHCYKSRIQVRLGEHNINVLEGNEQFVNAAKIIKHPNFDRKTLNNDIMLIKLSSPVKLNARVATVALPSSCAPAGTQCLISGWGNTLSSGVNEPDLLQCLDAPLLPQADCEASYPGKITDNMVCVGFLEGGKDSCQGDSGGPVVCNGELQGIVSWGYGCALPDNPGVYTKVCNYVDWIQDTIAAN
rate of hydrolysis of HCMV substrate relative to 1.5 μM wild-type KSHV Pr [2]: 2 fold
catalytic efficiency relative to trypsin ([2]; under the conditions used herein): roughly 5000 fold

B3: trypsin: extremely well-characterized serine protease used for comparison (protein)
chain: IVGGYTCQENSVPYQVSLNSGYHFCGGSLINDQWVVSAAHCYKSRIQVRLGEHNINVLEGNEQFVNAAKIIKHPNFDRKTLNNDIMLIKLSSPVKLNARVATVALPSSCAPAGTQCLISGWGNTLSSGVNEPDLLQCLDAPLLPQADCEASYPGKITDNMVCVGFLEGGKDSCQGDSGGPVVCNGELQGIVSWGYGCALPDNPGVYTKVCNYVDWIQDTIAAN
rate of hydrolysis of HCMV substrate relative to 1.5 μM wild-type KSHV Pr [2]: substantially more active than the KSHV enzyme

B4: S114A variant: KSHV protease variant in which the active-site Ser-114 was converted to Ala (protein)
chain (part 1 of 2): MRGS
chain (part 2 of 2): GSAQGLYVGGFVDVVSCPKLEQELYLDPDQVTDYLPVTEPLPITIEHLPETEVGWTLGLFQVSHGIFCTGAITSPAFLELASRLADTSHVARAPVKNLPKEPLLEILHTWLPGLALSSIHPRELSQTPSGPVFQHVSLCALGRRRGTVAVYGHDAEWVVSRFSSVSKSERAHILQHVSSCRLEDLSTPNFVSPLETLMAKAIDASFIRDRLDLLKTDRGVASILSPVYLKA
increase in fluorescence intensity (F/Fo) from peptide hydrolysis [2]: minimal enhancement
proteolytic activity relative to KSHV Pr [2]: 1/10
